This note sets out measurements from paper PMC4505445 (The Journal of Biological Chemistry, 2015).

This experiment has as its target biotinylated Aβ oligomers (from bAβ1–42) (UniProt P05067 672-713). In words: ELISA. Particulars: both partners purified. A general note: In an ELISA, binding on a coated surface is turned into a signal by an enzyme label.

B1: wild-type human prion protein (amino acids 23–231), unlabeled (domain or fragment)
chain: not shown
For the molecule B1, the binding result is listed as “binds”.
